Assay [1] deals with human foreskin microvascular endothelial cells. In words: Cell adhesion assay of human foreskin microvascular endothelial cells on protein-coated wells. It counts as cell-based. The note with it: free protein added to plates coated with TRAIL variant protein. As for the experimental part:
The TRAIL and its variant protein are coated on a 96-well PVC plate overnight at 4° C. The coated 96-well plate was rinsed with 0.9% physiological saline, and then blocked for 1 h at 1640 culture medium containing 2% bovine serum albumin, and then rinsed again. After the human foreskin microvascular endothelial cells were digested, washed three times with phosphate buffer and re-suspended into the complete RPMI1640 medium, it was then added to the 96-well plate coated with TRAIL and its variant (40,000 cell per well). After the cells were incubated for 1.5 hours in an incubator containing 5% carbon dioxide, they were washed three times with physiological saline to remove the non-adherent cells. The adherent cells were fixed for 30 min with phosphate buffer solution (pH 7.3) containing 4% formalin and 2% sucrose, and then stained with 0.5% crystal violet. The fixed stained cells were rinsed several times, then dissolved with […] DMSO to test the absorbance values at 540 nm. All the tests should be carried out at least three times independently.

Assay [2] concerns COLO-205 colon cancer cells. Put plainly: Cell apoptosis, Annexin V and PI double staining, COLO-205. It counts as cell-based. The note with it: COLO-205 cells pre-incubated with RGD-L-TRAIL (C230G), then induced with RGD-L-TRAIL. As for the experimental part:
After the cells treated with TRAIL and its variant were digested with trypsin, they were removed from the cultivation plate, washed twice with phosphate buffer solution, and centrifuged for 5 min at 300 g centrifugal force. The supernatants were removed, and the cells were re-suspended in 100 ul of binding buffer solution. Then, Annexin V-FITC (BD Pharmgen) was added until a final concentration of 2 μg/ml was achieved, followed by incubation at room temperature. After 10 min, 400 ul of binding buffer was added, and the cells were transferred to a flow analysis tube. 1 μg of […] (Sigma Corporation) was added to each tube. The cells were analyzed with a flow cytometer within 30 min. At least three separate tests should be carried out for each cell line.

B1: RGD-L-TRAIL (C230G): TRAIL variant fused with αVβ3 and αVβ5 integrin ligands with a mutation at TRAIL's activity center causing loss of biological activity (protein)
chain: ACDCRGDCFCGGGGGVRERGPQRVAAHITGTRGRSNTLSSPNSKNEKALGRKINSWESSRSGHSFLSNLHLRNGELVIHEKGFYYIYSQTYFRFQEEIKENTKNDKQMVQYIYKYTSYPDPILLMKSARNSGWSKDAEYGLYSIYQGGIFELKENDRIFVSVTNEHLIDMDHEASFFGAFLVG
As to B1, the “reduction by free protein of endothelial cells adhered to microplates coated with RGD-L-TRAIL (competitive test)” value in assay [1] is listed as “significantly reduce”. The “effect of pre-incubation with the competitive inhibitor on RGD-L-TRAIL-induced apoptosis activity” value in assay [2] is reported as “declined significantly”.

These data come from patent US9340596B2, “Fusion protein comprising tumor necrosis factor related apoptosis inducing ligand and integrin ligand and use thereof” (NANJING UNIVERSITY, priority 2007, dated 2016).
